This note sets out measurements from US20190276561A1 (FUJIFILM WAKO PURE CHEMICAL, published 2019).

For one assay, the target named is T1, Integrin α6β1 (Homo sapiens (Human), UniProt P23229 24-680; P05556 21-465).
T1 construct: Antigen of the TS2/16 and SG/19 antibodies
Put plainly: peak shift in gel filtration chromatography. A general note: Size exclusion chromatography separates by hydrodynamic size, large species first.

For assay [1], the target named is T2, hepatocyte growth factor (HGF) (Homo sapiens (Human), UniProt P14210 388-728).
T2 construct: Antigen of the t8E4 and t1E4 antibodies
T2 sequence (P14210 other isoform, or with tags, fused parts or gaps limits assumed): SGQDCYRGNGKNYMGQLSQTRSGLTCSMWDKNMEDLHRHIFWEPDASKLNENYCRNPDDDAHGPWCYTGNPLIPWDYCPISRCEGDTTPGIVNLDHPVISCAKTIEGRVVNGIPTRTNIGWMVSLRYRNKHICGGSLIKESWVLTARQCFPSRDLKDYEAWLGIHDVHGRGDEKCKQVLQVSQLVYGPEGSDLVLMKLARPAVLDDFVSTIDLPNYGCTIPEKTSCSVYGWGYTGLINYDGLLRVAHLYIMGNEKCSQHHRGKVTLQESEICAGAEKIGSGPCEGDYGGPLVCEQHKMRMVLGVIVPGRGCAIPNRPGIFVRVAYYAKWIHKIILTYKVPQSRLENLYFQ
Put plainly: peak shift in gel filtration chromatography.

The target in a further assay is T3, C8 peptide (PRGYPGQV).
T3 construct: Antigen molecule of the P20.1 antibody
T3 peptide: PRGYPGQV
Put plainly: affinity chromatography on immobilised C8 peptide, eluted with free C8.

In assay [2] the target is T4, SORLA (neuroral sorting receptor) Vps10p domain (Homo sapiens (Human), UniProt Q92673 86-753).
T4 construct: also called SORLA Vps10p domain
T4 sequence: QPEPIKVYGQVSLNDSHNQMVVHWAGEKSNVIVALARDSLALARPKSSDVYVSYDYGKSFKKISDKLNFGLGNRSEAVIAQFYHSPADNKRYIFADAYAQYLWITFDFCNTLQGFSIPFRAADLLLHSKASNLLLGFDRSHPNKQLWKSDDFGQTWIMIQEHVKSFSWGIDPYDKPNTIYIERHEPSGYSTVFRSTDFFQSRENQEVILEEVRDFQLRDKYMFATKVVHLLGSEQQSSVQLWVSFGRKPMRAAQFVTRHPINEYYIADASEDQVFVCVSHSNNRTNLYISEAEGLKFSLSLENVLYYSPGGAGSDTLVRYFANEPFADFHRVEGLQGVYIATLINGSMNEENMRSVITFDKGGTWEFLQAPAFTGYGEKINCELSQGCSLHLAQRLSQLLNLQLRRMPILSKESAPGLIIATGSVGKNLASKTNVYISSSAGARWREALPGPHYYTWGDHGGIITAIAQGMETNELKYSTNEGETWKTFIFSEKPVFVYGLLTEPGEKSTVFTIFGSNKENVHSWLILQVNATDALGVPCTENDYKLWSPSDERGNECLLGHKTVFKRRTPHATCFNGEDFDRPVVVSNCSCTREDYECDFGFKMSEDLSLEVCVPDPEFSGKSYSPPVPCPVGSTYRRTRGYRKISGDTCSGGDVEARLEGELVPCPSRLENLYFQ
Put plainly: peak shift in gel filtration chromatography.

For assay [3], the target named is T2, hepatocyte growth factor (HGF). Put plainly: X-ray crystal structure of the complex.

T1 sequence (P23229 other isoform, or with tags, fused parts or gaps limits assumed, chain 1 of 2): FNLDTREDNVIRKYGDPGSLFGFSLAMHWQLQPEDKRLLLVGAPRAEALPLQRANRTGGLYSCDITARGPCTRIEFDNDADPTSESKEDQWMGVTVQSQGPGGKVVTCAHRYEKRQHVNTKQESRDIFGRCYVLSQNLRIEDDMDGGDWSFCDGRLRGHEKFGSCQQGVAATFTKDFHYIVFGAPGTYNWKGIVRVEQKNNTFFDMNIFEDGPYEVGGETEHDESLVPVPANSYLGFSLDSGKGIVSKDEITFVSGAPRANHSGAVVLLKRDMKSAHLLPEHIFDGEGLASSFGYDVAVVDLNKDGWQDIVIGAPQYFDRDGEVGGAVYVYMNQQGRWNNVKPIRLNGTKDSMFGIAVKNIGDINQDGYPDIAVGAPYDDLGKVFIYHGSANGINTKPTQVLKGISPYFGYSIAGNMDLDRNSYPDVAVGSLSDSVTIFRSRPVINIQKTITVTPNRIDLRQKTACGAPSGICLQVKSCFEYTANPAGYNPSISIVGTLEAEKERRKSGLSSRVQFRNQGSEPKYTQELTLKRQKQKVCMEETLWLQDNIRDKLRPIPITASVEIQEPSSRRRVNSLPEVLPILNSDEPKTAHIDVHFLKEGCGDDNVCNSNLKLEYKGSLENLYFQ
T1 sequence (P05556 other isoform, or with tags, fused parts or gaps limits assumed, chain 2 of 2): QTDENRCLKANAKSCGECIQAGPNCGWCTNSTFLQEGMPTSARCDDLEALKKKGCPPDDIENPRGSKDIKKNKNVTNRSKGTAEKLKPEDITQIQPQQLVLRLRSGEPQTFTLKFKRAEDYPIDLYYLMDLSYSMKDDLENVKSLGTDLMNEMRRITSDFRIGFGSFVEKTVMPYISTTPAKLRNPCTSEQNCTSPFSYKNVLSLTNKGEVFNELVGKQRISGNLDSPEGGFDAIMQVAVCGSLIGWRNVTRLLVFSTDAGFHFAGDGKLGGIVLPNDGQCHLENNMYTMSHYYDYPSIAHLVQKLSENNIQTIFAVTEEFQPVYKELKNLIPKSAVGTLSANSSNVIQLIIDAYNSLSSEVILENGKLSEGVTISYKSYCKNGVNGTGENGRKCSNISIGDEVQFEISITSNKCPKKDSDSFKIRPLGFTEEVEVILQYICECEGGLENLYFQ

B1: TS2/16 antibody-Fv-clasp (v2) (other)
VH: MDVKLVESGGGLVKPGGSLKLSCAASGFTFSSYTMSWVRQTPEKRLEWVATISSGGSYTYYPDSVKGRFTISRDKAKNTLYLQMGSLKSEDTAMYYCTRIGYDEDYAMDHWGQGTSVTVCSGSDYEFLKSWTVEDLQKRLLALDPMMEQEIEEIRQKYQSKRQPILDAIEAK
VL: MQIVVTQRPTTMAASPGDKIIITCSVSSIISSNYLHWYSQKPGFSPKLLIYRTSNLASGVPPRFSGSGSGTSYSLTIGTMEAEDVATYYCQQGSDIPLTFGDGTKLDLKRGSDYEFLKSWTVEDLQKRLLALDPMMEQEIEEIRQKYQCKRQPILDAIEAK
notes: also called Fv-clasp (v2) against TS2/16 antibody
In the case of B1, the binding result in the assay with Integrin α6β1 is “binds”.

B2: SG/19 antibody-Fv-clasp (v2) (other)
VH: MQVHLQQSGAELMKPGASVKISCKATGYTFTSYWIEWVKQRPGHGLEWLGEILPGSGYIHYNEKFKGKATFTTDTSSNTAYMQLSSLTSEDSAVYYCSRALALYAMDYWGQGTSVTVCSGSDYEFLKSWTVEDLQKRLLALDPMMEQEIEEIRQKYQSKRQPILDAIEAK
VL: MDIVMTQATPSIPVTPGESVSISCRSNKSLLHSNGNTYLYWFLQRPGQSPRLLIFRMSNLASGVPDRFSGSGSGTAFTLRISRVEAADVGIYFCLQHLEYPFTFGAGTKLELKRGSDYEFLKSWTVEDLQKRLLALDPMMEQEIEEIRQKYQCKRQPILDAIEAK
notes: also called Fv-clasp (v2) against SG/19 antibody
On to B2, for which, in the assay with Integrin α6β1, the binding result is recorded as “binds”.

B3: t8E4 antibody-Fv-clasp (v2) (other)
VH: MKQVQLKESGPDLVQPSQTLSLTCTVSGFSLTGYGVHWVRQPPGKGLEWVGTLGWNDKKYYNSALKSRLSISRDTSKNQVFLKLSSLETEDTAMYYCTRDGGLLFAYYAMDYWGQGTSVTVCSGSDYEFLKSWTVEDLQKRLLALDPMMEQEIEEIRQKYQSKRQPILDAIEAK
VL: MDIQMTQTTSSLSASLGDRVTFSCRASQDISNYLNWYQQKPDGTVKLLIFYTSRLHSGVPSRFSGSGSGTDYSLTIANLEQEDFATYFCQQDSKHPFTFGSGTKLEIKRGSDYEFLKSWTVEDLQKRLLALDPMMEQEIEEIRQKYQCKRQPILDAIEAK
notes: also called Fv-clasp (v2) against t8E4 antibody
For B3, the binding result in assay [1] is “binds”.

B4: P20.1 antibody-Fv-clasp (v1) obtained in the E. coli expression system (Comparative Example 1) (other)
VH: MQIQLVQSGPEVQKPGETVRISCKASGYTFTTAGMQWVQKMPGKSLKWIGWINTRSGVPKYAEDFKGRFAFSLETSASIAYLHINNLKNEDTATYFCAREGPGFVYWGQGTLVTVSSGSDYEFLKSWTVEDLQKRLLALDPMMEQEIEEIRQKCQSKRQPILDAIEAK
VL: MGQTVVTQESALTTSPGETVTLTCRSSTGAVTTSNYANWVQEKPDHLFTGLIVGTNNRVPGVPPRFSGSLIEDKAALTITGAQTEDEAIYFCALWYSNHWVFGGGTKLTVLGGSDYEFLKSWTVEDLQKRLLALDPMCEQEIEEIRQKYQSKRQPILDAIEAK
notes: Fv-clasp fragment antibody: heterodimer of VH-SARAH and VL-SARAH linked by a disulfide between Cys35 and Cys24 of the two SARAH domains; also called Fv-clasp (v1) against P20.1 antibody; Fv-clasp (v1) of P20.1 antibody
As to B4, in the assay with C8 peptide (PRGYPGQV), the binding result was “binds”.

B5: 93201 antibody-Fv-clasp (v2) (other)
VH: MEVQLQQSGAELVKPGASVKLSCTASGFNIQDTYIHWVKQRPEQGLDWIGRIDPANGNTKYDPNFQGKATITADTSSNTAYLQLSSLASEDTAVYYCATSNYYSRGAMDYWGQGTSVTVCSGSDYEFLKSWTVEDLQKRLLALDPMMEQEIEEIRQKYQSKRQPILDAIEAK
VL: MDIVLTQSPASLAVSLGQRATISCRASESVEYYGTNLMHWYQQKPGQPPKLLIYVASTVKSGVPARFSGSGSGTDFSLNIHPVEEDDIAMYFCQQSRKVPWTFGGGTRLEIKRGSDYEFLKSWTVEDLQKRLLALDPMMEQEIEEIRQKYQCKRQPILDAIEAK
Take B5: in assay [2], the binding result is given as “binds”.

B6: t1E4 antibody-Fv-clasp (v2) (other)
VH: MKQGQLQQSGPELVKPGASVKISCKASGYVFSSSWMNWVKQRPGKGLEWIGRIYPGYGDTNYNGKFKGKATLTADKSSSTAYMQLSSLTSEDSAVYFCVREELGPYWYFDVWGAGTTVTVCSGSDYEFLKSWTVEDLQKRLLALDPMMEQEIEEIRQKYQSKRQPILDAIEAK
VL: MDVVMTQTPLSLPVSLGDQASISCRSSQSLVHSNGNTYLHWYLQKPGQSPKLLIYKVSNRFSGVPDRFSGSGSGTDFTLKISRVEAEDLGVYFCSQSTHVPYTFGSGTKLEIKRGSDYEFLKSWTVEDLQKRLLALDPMMEQEIEEIRQKYQCKRQPILDAIEAK
notes: also called Fv-clasp (v2) against t1E4 antibody
With B6, the binding result in assay [3] was “binds”.
